Data: doi:10.1101/708180

Columns and labels:
[1] = target: cHSP27, isolated α-crystallin domain of HSP27 (residues 84-171), oxidized disulfide-linked dimer (human) (UniProt P04792); assay: NMR CPMG relaxation dispersion
[2] = target: cHSP27, isolated α-crystallin domain of HSP27 (residues 84-171), oxidized disulfide-linked dimer (human) (UniProt P04792); assay: NMR titration
[3] = target: cHSP27, isolated α-crystallin domain of HSP27 (residues 84-171), oxidized disulfide-linked dimer (human) (UniProt P04792); assay: NMR titration + other: NMR CPMG relaxation dispersion

Chain of C-terminal peptide of HSP27 bearing the P182L mutation (ILV motif) (P04792 whole entry P182L, looked up, tested part not stated): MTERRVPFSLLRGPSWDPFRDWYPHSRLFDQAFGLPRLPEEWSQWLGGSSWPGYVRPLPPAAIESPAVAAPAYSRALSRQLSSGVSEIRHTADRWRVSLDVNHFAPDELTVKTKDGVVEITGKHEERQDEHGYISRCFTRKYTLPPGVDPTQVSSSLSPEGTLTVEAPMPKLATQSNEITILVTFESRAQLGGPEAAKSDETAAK
Chain of cHSP27, isolated α-crystallin domain of HSP27 (residues 84-171), oxidized disulfide-linked dimer (human) (P04792 84-171): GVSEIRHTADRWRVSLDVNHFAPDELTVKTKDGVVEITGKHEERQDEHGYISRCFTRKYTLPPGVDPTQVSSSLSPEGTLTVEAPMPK
Chain of C-terminal peptide of HSP27 containing the WT IxI/V (IPV) motif (P04792 whole entry, looked up, tested part not stated): as the sequence (P04792 whole entry P182L, looked up, tested part not stated) above, with L182P counted along it

| Kd [1] [mM] | koff [1] [s⁻¹] | kon [1] [M⁻¹ s⁻¹] | Kd [2] [µM] | fold difference of kon (from CSP Kd and CPMG koff) against the WT peptide [3] [fold] | Substance |
| --- | --- | --- | --- | --- | --- |
| 10.2 | 840 | 82600 | 1200 | 10 | C-terminal peptide of HSP27 bearing the P182L mutation (ILV motif) (from UniProt P04792 179-186) |
| 2.51 | 759 | 302000 | 125 | – | C-terminal peptide of HSP27 containing the WT IxI/V (IPV) motif (from UniProt P04792 179-186) |
